The values that follow come from IntAct's records for PubMed 16824107.

First the molecules themselves.
B1: Cytochrome c biogenesis ATP-binding export protein CcmA (Escherichia coli (strain K12)), P33931 (parent)
chain: MGMLEARELLCERDERTLFSGLSFTLNAGEWVQITGSNGAGKTTLLRLLTGLSRPDAGEVLWQGQPLHQVRDSYHQNLLWIGHQPGIKTRLTALENLHFYHRDGDTAQCLEALAQAGLAGFEDIPVNQLSAGQQRRVALARLWLTRATLWILDEPFTAIDVNGVDRLTQRMAQHTEQGGIVILTTHQPLNVAESKIRRISLTQTRAA
partner: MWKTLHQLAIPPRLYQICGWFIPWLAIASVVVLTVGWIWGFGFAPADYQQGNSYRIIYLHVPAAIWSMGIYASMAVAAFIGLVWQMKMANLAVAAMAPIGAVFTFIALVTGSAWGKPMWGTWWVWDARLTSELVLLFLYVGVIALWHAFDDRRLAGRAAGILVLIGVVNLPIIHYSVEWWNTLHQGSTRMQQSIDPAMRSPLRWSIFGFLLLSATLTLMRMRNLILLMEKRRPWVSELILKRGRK
B2: Cytochrome c biogenesis ATP-binding export protein CcmA (Escherichia coli (strain K12)), P33931 (parent)
chain: B1 chain
partner: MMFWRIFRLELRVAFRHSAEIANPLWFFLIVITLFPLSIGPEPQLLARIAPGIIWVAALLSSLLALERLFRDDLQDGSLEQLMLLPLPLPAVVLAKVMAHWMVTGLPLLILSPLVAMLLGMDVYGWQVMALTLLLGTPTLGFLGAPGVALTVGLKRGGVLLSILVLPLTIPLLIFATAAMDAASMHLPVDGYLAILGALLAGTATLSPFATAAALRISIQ

The first experiment covers variants of B1. The conditions noted are these: with ccmc_ecoli ccmC.
For the variant G132A, the “effect of a mutation on the interaction” value is given as “with no effect”.

A further experiment covers variants of B2. The conditions noted are these: with ccmb_ecoli ccmB.
Regarding G132A, the “effect of a mutation on the interaction” value is “with no effect”.
